Read-outs that look alike come from different tables or passages of the source.
Assays:
[1] = target: LY6A (Ly6a, C57BL/6J mouse) (mouse (C57BL/6J)) (UniProt P05533); test: AAV library bound to Ly6a-transfected HEK293T cells, NGS
[2] = target: LY6C1 (Ly6c1, C57BL/6J mouse, splice variant 1) (mouse (C57BL/6J)) (UniProt P0CW02); test: AAV library bound to Ly6c1-transfected HEK293T cells, NGS
[3] = target: LY6C1 (Ly6c1, C57BL/6J mouse, splice variant 1) (mouse (C57BL/6J)) (UniProt P0CW02); test: cell-based or functional assay
[4] = target: LY6C1 (Ly6c1, C57BL/6J mouse, splice variant 1) (mouse (C57BL/6J)) (UniProt P0CW02); test: AAV library bound to Ly6c1-transfected HEK293T cells, NGS; remark: listed apart in the source
[5] = target: LY6A (Ly6a, C57BL/6J mouse) (mouse (C57BL/6J)) (UniProt P05533); test: AAV library bound to Ly6a-transfected HEK293T cells, NGS; remark: listed apart in the source
[6] = target: LY6A (Ly6a, C57BL/6J mouse) (mouse (C57BL/6J)) (UniProt P05533); test: qPCR of viral genomes bound to Ly6a-transfected HEK293T cells
[7] = target: LY6A (Ly6a, C57BL/6J mouse) (mouse (C57BL/6J)) (UniProt P05533); test: binding (qPCR) and transduction of cells with ectopic LY6A
[8] = target: LY6A (Ly6a, C57BL/6J mouse) (mouse (C57BL/6J)) (UniProt P05533); test: cell-based or functional assay
[9] = target: LY6A (Ly6a, C57BL/6J mouse) (mouse (C57BL/6J)) (UniProt P05533); test: qPCR of viral genomes bound to BMVECs treated with Ly6a sgRNAs (CRISPR/SaCAS9)

Chain of UniProt P05533 (P05533 27-112 limits assumed): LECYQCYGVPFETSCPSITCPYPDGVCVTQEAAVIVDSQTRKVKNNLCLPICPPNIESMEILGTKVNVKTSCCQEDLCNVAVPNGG
Chain of UniProt P0CW02 (P0CW02 27-109 limits assumed, change not shown): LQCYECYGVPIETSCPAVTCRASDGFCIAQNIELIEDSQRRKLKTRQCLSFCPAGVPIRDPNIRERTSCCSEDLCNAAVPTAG

Substance: AAV9 K449R 7-mer variant C1 (KSAGSIY)
- fold enrichment (log2) [1]: 1.41 log2
- fold enrichment (log2) [2]: 6.12 log2

Substance: AAV9 K449R 7-mer variant C3 (WGTPPRG)
- fold enrichment (log2) [1]: 1.01 log2
- fold enrichment (log2) [2]: 6.35 log2

Substance: AAV9 K449R 7-mer variant C5 (ELYKLPT)
- fold enrichment (log2) [1]: -2.26 log2
- fold enrichment (log2) [2]: 5.38 log2

Substance: AAV9 K449R 7-mer variant C28 (KSVGSVY)
- fold enrichment (log2) [1]: -1.24 log2
- transduction of hCMEC cells (firefly luciferase assay) (logs (base 10)) [3]: 2
- fold enrichment (log2) [2]: 3.59 log2

Substance: AAV9 K449R 7-mer variant SINKPFV
- fold enrichment (log2) [4]: -0.3 log2
- fold enrichment (log2) [5]: 4.74 log2

Substance: AAV9 K449R 7-mer variant SIYLGSQ
- fold enrichment (log2) [4]: 4.47 log2
- fold enrichment (log2) [5]: -0.76 log2

Substance: AAV9 K449R 7-mer variant SKGSYST
- fold enrichment (log2) [4]: 2.74 log2
- fold enrichment (log2) [5]: 1.54 log2

Substance: AAV9 K449R 7-mer variant SKSGYSA
- fold enrichment (log2) [4]: 2.14 log2
- fold enrichment (log2) [5]: -3.32 log2

Substance: AAV9 K449R 7-mer variant SKTGYST
- fold enrichment (log2) [4]: 4.43 log2
- fold enrichment (log2) [5]: -3.55 log2

Substance: AAV9 K449R 7-mer variant SLDFKNI
- fold enrichment (log2) [4]: -1.29 log2
- fold enrichment (log2) [5]: 4.61 log2

Substance: AAV9 K449R 7-mer variant SLSKPFS
- fold enrichment (log2) [4]: -2.08 log2
- fold enrichment (log2) [5]: 2.19 log2

Substance: AAV9 K449R 7-mer variant SNDRPFI
- fold enrichment (log2) [4]: -1.02 log2
- fold enrichment (log2) [5]: 5.43 log2

Substance: AAV9 K449R 7-mer variant SQKTPFL
- fold enrichment (log2) [4]: -3.55 log2
- fold enrichment (log2) [5]: 3.81 log2

Substance: AAV9 K449R 7-mer variant SSEKPFQ
- fold enrichment (log2) [4]: -3.55 log2
- fold enrichment (log2) [5]: 2.69 log2

Substance: AAV9 K449R 7-mer variant SSTGYSS
- fold enrichment (log2) [4]: 4 log2
- fold enrichment (log2) [5]: -1.93 log2

Substance: AAV9 K449R 7-mer variant STRGYSA
- fold enrichment (log2) [4]: 3.55 log2
- fold enrichment (log2) [5]: 1.08 log2

Substance: AAV9 K449R 7-mer variant STTFKDI
- fold enrichment (log2) [4]: -3.32 log2
- fold enrichment (log2) [5]: 3.44 log2

Substance: AAV9 K449R 7-mer variant SYIGASS
- fold enrichment (log2) [4]: 5.08 log2
- fold enrichment (log2) [5]: -1.01 log2

Substance: AAV9 K449R 7-mer variant SYQGYSS
- fold enrichment (log2) [4]: 5.21 log2
- fold enrichment (log2) [5]: 1.47 log2

Substance: AAV9 K449R 7-mer variant TDTRPFI
- fold enrichment (log2) [4]: -3.32 log2
- fold enrichment (log2) [5]: 4.19 log2

Substance: AAV9 K449R 7-mer variant TEKWTSS
- fold enrichment (log2) [4]: 4.43 log2
- fold enrichment (log2) [5]: 0.98 log2

Substance: AAV9 K449R 7-mer variant TGTSPFK
- fold enrichment (log2) [4]: -3.32 log2
- fold enrichment (log2) [5]: 2.22 log2

Substance: AAV9 K449R 7-mer variant TITFKDV
- fold enrichment (log2) [4]: -0.78 log2
- fold enrichment (log2) [5]: 5.15 log2

Substance: AAV9 K449R 7-mer variant TKSGYST
- fold enrichment (log2) [4]: 5.71 log2
- fold enrichment (log2) [5]: 0.68 log2

Substance: AAV9 K449R 7-mer variant TKSTPFI
- fold enrichment (log2) [4]: -1.85 log2
- fold enrichment (log2) [5]: 2.6 log2

Substance: AAV9 K449R 7-mer variant TKYMHSS
- fold enrichment (log2) [4]: 4.24 log2
- fold enrichment (log2) [5]: 1.35 log2

Substance: AAV9 K449R 7-mer variant TLAYPFK
- fold enrichment (log2) [4]: -0.72 log2
- fold enrichment (log2) [5]: 3.93 log2

Substance: AAV9 K449R 7-mer variant TQQGYSS
- fold enrichment (log2) [4]: 5.8 log2
- fold enrichment (log2) [5]: -0.92 log2

Substance: AAV9 K449R 7-mer variant TRDLPFK
- fold enrichment (log2) [4]: -1.36 log2
- fold enrichment (log2) [5]: 4.34 log2

Substance: AAV9 K449R 7-mer variant TRFGAST
- fold enrichment (log2) [4]: 4.32 log2
- fold enrichment (log2) [5]: 0 log2

Substance: AAV9 K449R 7-mer variant TRFGSST
- fold enrichment (log2) [4]: 3.63 log2
- fold enrichment (log2) [5]: 1.29 log2

Substance: AAV9 K449R 7-mer variant TRNGYST
- fold enrichment (log2) [4]: 5.58 log2
- fold enrichment (log2) [5]: 0.82 log2
- fold enrichment (log2) [1]: 0.186 log2
- fold enrichment (log2) [2]: 4.05 log2

Substance: AAV9 K449R 7-mer variant TRTGYST
- fold enrichment (log2) [4]: 4.63 log2
- fold enrichment (log2) [5]: 0.89 log2

Substance: AAV9 K449R 7-mer variant TRTSGAS
- fold enrichment (log2) [4]: 3.85 log2
- fold enrichment (log2) [5]: 0.43 log2

Substance: AAV9 K449R 7-mer variant TSFKPFP
- fold enrichment (log2) [4]: 0.48 log2
- fold enrichment (log2) [5]: 3.11 log2

Substance: AAV9 K449R 7-mer variant TSMKPFL
- fold enrichment (log2) [4]: -0.98 log2
- fold enrichment (log2) [5]: 3.49 log2

Substance: AAV9 K449R 7-mer variant TTMKPFN
- fold enrichment (log2) [4]: -3.74 log2
- fold enrichment (log2) [5]: 2.95 log2

Substance: AAV9 K449R 7-mer variant TVMAPFK
- fold enrichment (log2) [4]: -0.19 log2
- fold enrichment (log2) [5]: 5.53 log2

Substance: AAV9 K449R 7-mer variant TVTGYSS
- fold enrichment (log2) [4]: 3.22 log2
- fold enrichment (log2) [5]: -3.91 log2

Substance: AAV9 K449R 7-mer variant TYGGYSQ
- fold enrichment (log2) [4]: 2.02 log2
- fold enrichment (log2) [5]: -0.34 log2

Substance: AAV9 K449R 7-mer variant TYKSGSS
- fold enrichment (log2) [4]: 3.78 log2
- fold enrichment (log2) [5]: 1.95 log2

Substance: AAV9 K449R 7-mer variant VAERPFK
- fold enrichment (log2) [4]: 1.22 log2
- fold enrichment (log2) [5]: 6.38 log2

Substance: AAV9 K449R 7-mer variant VAVFKNV
- fold enrichment (log2) [4]: -0.91 log2
- fold enrichment (log2) [5]: 4.23 log2

Substance: AAV9 K449R 7-mer variant VKGGYSS
- fold enrichment (log2) [4]: 3.3 log2
- fold enrichment (log2) [5]: 0.07 log2

Substance: AAV9 K449R 7-mer variant VKVGFSS
- fold enrichment (log2) [4]: 4.22 log2
- fold enrichment (log2) [5]: -2.25 log2

Substance: AAV9 K449R 7-mer variant VNRGYSS
- fold enrichment (log2) [4]: 5.18 log2
- fold enrichment (log2) [5]: 0.89 log2

Substance: AAV9 K449R 7-mer variant VPRYGSS
- fold enrichment (log2) [4]: 3.55 log2
- fold enrichment (log2) [5]: -1.01 log2

Substance: AAV9 K449R 7-mer variant VRPGWST
- fold enrichment (log2) [4]: 5.89 log2
- fold enrichment (log2) [5]: 1.02 log2

Substance: AAV9 K449R 7-mer variant VTHGYSS
- fold enrichment (log2) [4]: 3.25 log2
- fold enrichment (log2) [5]: -0.84 log2

Substance: AAV9 K449R 7-mer variant VYPGYST
- fold enrichment (log2) [4]: 2.21 log2
- fold enrichment (log2) [5]: -3.32 log2

Substance: AAV9 K449R 7-mer variant WRQGYAS
- fold enrichment (log2) [4]: 2.89 log2
- fold enrichment (log2) [5]: -0.09 log2

Substance: AAV9 K449R 7-mer variant YENRPFV
- fold enrichment (log2) [4]: -3.32 log2
- fold enrichment (log2) [5]: 2.23 log2

Substance: AAV9 K449R 7-mer variant YLKGYSA
- fold enrichment (log2) [4]: 4.46 log2
- fold enrichment (log2) [5]: 0.15 log2

Substance: AAV9 K449R 7-mer variant YVGNPFK
- fold enrichment (log2) [4]: 0.58 log2
- fold enrichment (log2) [5]: 4.53 log2

Substance: AAV-PHP.B
- fold increase in binding on Ly6a expression [6]: > 50 fold

Substance: AAV-PHP.B2
- fold increase in binding on Ly6a expression [6]: > 50 fold

Substance: AAV-PHP.B3
- fold increase in binding on Ly6a expression [6]: > 50 fold

Substance: AAV-PHP.eB
- fold increase in binding and transduction on LY6A expression [7]: > 30 fold
- transduction of HEK293T cells (Luciferase assay) [8]: 30 fold
- transduction of hCMEC cells (firefly luciferase assay) (logs (base 10)) [8]: 2
- reduction in binding after Ly6a disruption [9]: 50%
- fold increase in binding on Ly6a expression [6]: > 50 fold

Source: US20220143214A1
